The record followed here is paper PMC2944003.

For the assay, the target named is human complement receptor 3 (CR3) on CR3-transfected CHO cells (CHO/CR3) (human) (UniProt P11215). The experiment in a line: flow cytometry on cells. Background: Flow cytometry measures light scatter and fluorescence of single cells or particles in a stream.

fH SCRs 18–20 fused to the Fc fragment of murine IgG2a (Fc fusion), sequence (P08603 19-1231): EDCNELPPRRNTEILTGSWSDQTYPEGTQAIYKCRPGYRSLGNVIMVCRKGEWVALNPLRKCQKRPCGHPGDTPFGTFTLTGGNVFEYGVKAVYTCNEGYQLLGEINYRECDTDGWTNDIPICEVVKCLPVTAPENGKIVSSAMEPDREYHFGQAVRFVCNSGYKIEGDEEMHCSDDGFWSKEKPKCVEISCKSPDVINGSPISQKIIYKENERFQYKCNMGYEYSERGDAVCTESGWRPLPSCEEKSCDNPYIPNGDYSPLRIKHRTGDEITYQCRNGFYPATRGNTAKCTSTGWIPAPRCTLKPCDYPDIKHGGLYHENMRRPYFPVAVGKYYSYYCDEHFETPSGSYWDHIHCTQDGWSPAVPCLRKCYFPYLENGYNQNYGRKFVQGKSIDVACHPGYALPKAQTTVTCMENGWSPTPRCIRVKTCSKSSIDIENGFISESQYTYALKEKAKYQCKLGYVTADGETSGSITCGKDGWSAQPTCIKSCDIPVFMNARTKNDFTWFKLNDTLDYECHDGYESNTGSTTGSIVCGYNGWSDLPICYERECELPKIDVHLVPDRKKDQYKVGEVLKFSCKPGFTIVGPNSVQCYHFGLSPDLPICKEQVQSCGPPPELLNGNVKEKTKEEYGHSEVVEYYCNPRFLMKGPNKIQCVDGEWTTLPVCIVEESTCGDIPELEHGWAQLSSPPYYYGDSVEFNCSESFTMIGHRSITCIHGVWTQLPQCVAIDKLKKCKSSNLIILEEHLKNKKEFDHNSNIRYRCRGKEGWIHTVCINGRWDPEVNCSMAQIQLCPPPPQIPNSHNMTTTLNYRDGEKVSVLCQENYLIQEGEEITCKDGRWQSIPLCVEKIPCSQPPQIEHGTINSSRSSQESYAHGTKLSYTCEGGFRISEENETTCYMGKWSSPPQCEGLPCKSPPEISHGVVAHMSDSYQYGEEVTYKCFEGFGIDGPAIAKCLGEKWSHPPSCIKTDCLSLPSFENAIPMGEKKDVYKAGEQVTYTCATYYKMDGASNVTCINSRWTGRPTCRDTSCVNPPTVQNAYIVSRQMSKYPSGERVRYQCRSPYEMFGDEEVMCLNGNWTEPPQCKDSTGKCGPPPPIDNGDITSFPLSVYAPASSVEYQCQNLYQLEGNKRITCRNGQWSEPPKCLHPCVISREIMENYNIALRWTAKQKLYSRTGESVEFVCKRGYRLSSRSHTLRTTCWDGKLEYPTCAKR
fH SCRs 16–20 fused to the Fc fragment of murine IgG2a (Fc fusion), sequence (P08603 19-1231): as above
fH SCRs 6–10 fused to the Fc fragment of murine IgG2a (Fc fusion), sequence (P08603 19-1231): as above

Take “fH SCRs 6–10 fused to the Fc fragment of murine IgG2a (Fc fusion)”: the fold increase in fluorescence over control levels is 3 fold. Under “fH SCRs 16–20 fused to the Fc fragment of murine IgG2a (Fc fusion)” stands 15 fold. The value for “fH SCRs 18–20 fused to the Fc fragment of murine IgG2a (Fc fusion)” was 30 fold.
